Experimental findings from patent US20240270821A1, “GIP/GLP1/GCG TRI-RECEPTOR AGONISTS AND USES THEREOF” (priority 2023, published 2024) are described below.

What all share (experiment): cell-based or functional assay
Assay [1] has as its target T1, human GIP receptor (human) (UniProt P48546).
T1 sequence (looked up): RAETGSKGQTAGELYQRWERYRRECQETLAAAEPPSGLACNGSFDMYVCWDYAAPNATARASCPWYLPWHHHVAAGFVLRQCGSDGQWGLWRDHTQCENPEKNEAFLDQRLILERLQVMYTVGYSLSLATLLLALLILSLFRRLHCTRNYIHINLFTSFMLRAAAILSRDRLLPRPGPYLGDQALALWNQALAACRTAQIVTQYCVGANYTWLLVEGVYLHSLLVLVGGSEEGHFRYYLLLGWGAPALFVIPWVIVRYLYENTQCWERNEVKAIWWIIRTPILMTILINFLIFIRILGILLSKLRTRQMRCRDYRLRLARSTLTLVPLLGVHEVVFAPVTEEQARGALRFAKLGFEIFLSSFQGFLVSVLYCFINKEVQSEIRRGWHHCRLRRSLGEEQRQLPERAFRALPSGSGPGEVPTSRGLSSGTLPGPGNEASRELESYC

Assay [2] concerns the target human glucagon receptor (human) (UniProt P47871).
In assay [3] the target is hGLP-1R (Homo sapiens, UniProt P43220).
hGLP-1R, sequence (P43220 24-463): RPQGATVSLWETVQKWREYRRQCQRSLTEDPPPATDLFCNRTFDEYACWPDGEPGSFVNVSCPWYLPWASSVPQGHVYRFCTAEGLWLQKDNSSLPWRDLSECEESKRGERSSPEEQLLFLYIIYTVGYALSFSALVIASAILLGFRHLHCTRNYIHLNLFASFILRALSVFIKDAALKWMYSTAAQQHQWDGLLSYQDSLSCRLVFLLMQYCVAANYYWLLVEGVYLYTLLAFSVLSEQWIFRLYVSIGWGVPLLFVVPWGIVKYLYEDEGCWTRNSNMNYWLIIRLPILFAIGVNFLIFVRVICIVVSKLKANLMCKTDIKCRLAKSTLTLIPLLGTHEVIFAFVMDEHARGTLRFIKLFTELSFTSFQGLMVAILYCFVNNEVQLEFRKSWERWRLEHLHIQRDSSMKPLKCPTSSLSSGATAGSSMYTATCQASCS

human glucagon receptor (human), sequence (P47871 26-477): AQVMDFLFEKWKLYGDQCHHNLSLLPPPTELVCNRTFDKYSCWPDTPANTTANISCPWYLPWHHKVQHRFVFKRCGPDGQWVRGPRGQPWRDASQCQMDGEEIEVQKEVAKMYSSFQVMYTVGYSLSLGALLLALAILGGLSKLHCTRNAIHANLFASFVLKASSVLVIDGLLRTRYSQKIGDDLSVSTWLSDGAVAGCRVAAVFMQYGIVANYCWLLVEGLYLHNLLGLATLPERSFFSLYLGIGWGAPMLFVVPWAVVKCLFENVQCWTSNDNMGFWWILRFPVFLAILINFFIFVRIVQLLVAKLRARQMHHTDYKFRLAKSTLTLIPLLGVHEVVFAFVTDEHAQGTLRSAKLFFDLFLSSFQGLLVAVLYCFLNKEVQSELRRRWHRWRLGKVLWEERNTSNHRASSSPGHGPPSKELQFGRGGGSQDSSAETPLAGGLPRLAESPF

B1: Example 1038 (peptide)
chain: YXQGTFTSDFSQXLDXKAQXAFIEYLLEAGPSSGAPPPSGSEEE
modifications: synthetic construct; SITE 2: note = 2-Aminoisobutyric Acid; SITE 13: note = alpha-methyl-leucine; SITE 16: note = L-ornithine; SITE 17: note = Lysine is chemically modified through conjugation of the epsilon-amino group of the Lysine side chain with (2-[2-(2-Amino-ethoxy)-ethoxy]-acetyl)-(gamma-Glu)
With B1, the Relative cAMP EC50 in assay [1] came out at 0.134 nM; in assay [2], 5.93 nM; in assay [3], 1.45 nM. For the same molecule, the cAMP Rel EC50, nM (1% HSA) in assay [1] is 29.8 nM; in assay [2], 1300 nM; in assay [3], 349 nM.

B2: Example 1039 (peptide)
chain: YXQGTFTSDFSQXLDXKAQXAFIEYLLEAGPSSGAPPPSGSEEE
modifications: not fully specified; synthetic construct; SITE 2: note = 2-Aminoisobutyric Acid; SITE 13: note = alpha-methyl-leucine; SITE 16: note = L-ornithine; SITE 17: note = Lysine is chemically modified through conjugation of the epsilon-amino group of the Lysine side chain with (gamma-Glu)2-CO-(CH2)16-CO2H; SITE 20: note = 2-Am
For the molecule B2, the Relative cAMP EC50 in assay [1] is 0.118 nM; in assay [2] it was 7.46 nM; in assay [3] it was 1.65 nM. For the same molecule, the figures for the cAMP Rel EC50, nM (1% HSA) in assay [1], in assay [2] and in assay [3] were 26.8 nM, 2020 nM and 413 nM, respectively.

B3: Example 1027 (peptide)
chain: YXQGTFTSDXSQXLDXKAQXAFIEXLIEGGPSSGEPPPSGSEE
modifications: Aib, 4Pal, αMeL, Orn, Me4Pal, αMeY; lipidated Lys; C-terminal amide; synthetic construct; SITE 2: note = 2-Aminoisobutyric Acid; SITE 10: note = 3-(4-Pyridyl)-L-alanine; SITE 13: note = alpha-methyl-leucine; SITE 16: note = L-ornithine; SITE 17: note = Lysine is chemically modified through conjugation of the epsilon-amino group of the Lysine side chain with (gamma-Gl)
B3: the Relative cAMP EC50 in assay [1] stood at 0.208 nM; in assay [2], 4.99 nM; in assay [3] it was 1.23 nM. For the same molecule, the cAMP Rel EC50, nM (1% HSA) in assay [1] was found to be 58.1 nM; in assay [2] it was 1470 nM; in assay [3] it was 252 nM.

B4: Example 1037 (peptide)
chain: YXQGTFTSDXSQXLDKKAQXAFIEYLLAGGPSSGAPPPSGSEE
modifications: AEEA-γGlu-C18 diacid on Lys; non-natural residues; amide; synthetic construct; SITE 2: note = 2-Aminoisobutyric Acid; SITE 10: note = 3-(4-Pyridyl)-L-alanine; SITE 13: note = alpha-methyl-leucine; SITE 17: note = Lysine is chemically modified through conjugation of the epsilon-amino group of the Lysine side chain with (2-[2-(2-Amino-ethoxy)-ethoxy]-acetyl)
For the molecule B4, the cAMP Rel EC50, nM (1% HSA) was determined as 13.7 nM in assay [1], 291 nM in assay [2] and 625 nM in assay [3].

B5: Example 1034 (peptide)
chain: YXQGTFTSDXSQXLDXKAQXAFIEYLIAGGPSSGAPPPSGSEE
modifications: non-natural residues; lipidated Lys; C-terminal amide; synthetic construct; SITE 2: note = 2-Aminoisobutyric Acid; SITE 10: note = 3-(4-Pyridyl)-L-alanine; SITE 13: note = alpha-methyl-leucine; SITE 16: note = L-ornithine; SITE 17: note = Lysine is chemically modified through conjugation of the epsilon-amino group of the Lysine side chain with D-Glutami
With B5, the results for the cAMP Rel EC50, nM (1% HSA) in assay [1], in assay [2] and in assay [3] were 23 nM, 1890 nM and 317 nM, respectively.

B6: Example 1033 (peptide)
chain: YXQGTFTSDXSQXLDXKAQXAFIEYLIAGGPSSGAPPPSGSEE
modifications: Aib, 4Pal, Me4Pal, Orn, alpha-methyl-Leu, lipidated Lys, amide; synthetic construct; SITE 2: note = 2-Aminoisobutyric Acid; SITE 10: note = 3-(4-Pyridyl)-L-alanine; SITE 13: note = alpha-methyl-leucine; SITE 16: note = L-ornithine; SITE 17: note = Lysine is chemically modified through conjugation of the epsilon-amino group of the Lysine side chain with (Glu)2-(g)
For B6, the values for the cAMP Rel EC50, nM (1% HSA) in assay [1], in assay [2] and in assay [3] were 23.4 nM, 2170 nM and 221 nM, respectively.

B7: Example 1036 (peptide)
chain: YXQGTFTSDXSQXLDKKAQXAFIEYLLAGGPSSGAPPPSGSEE
modifications: synthetic construct; SITE 2: note = 2-Aminoisobutyric Acid; SITE 10: note = 3-(4-Pyridyl)-L-alanine; SITE 13: note = alpha-methyl-leucine; SITE 17: note = Lysine is chemically modified through conjugation of the epsilon-amino group of the Lysine side chain with (gamma-Glu)2-CO-(CH2)16-CO2H; SITE 20:
For the molecule B7, the Relative cAMP EC50 was 0.114 nM in assay [1], 2.05 nM in assay [2] and 6.87 nM in assay [3]. Moreover, the cAMP Rel EC50, nM (1% HSA) in assay [1] turned out to be 13 nM; in assay [2], 353 nM; in assay [3] it was 1080 nM.

B8: Example 1029 (peptide)
chain: YXQGTFTSDXSQXLDKKAQXAFIEYLIAGGPSSGAPPPSGSEE
modifications: non-natural residues; AEEA-γGlu-C18 diacid on Lys; amide; synthetic construct; SITE 2: note = 2-Aminoisobutyric Acid; SITE 10: note = 3-(4-Pyridyl)-L-alanine; SITE 13: note = alpha-methyl-leucine; SITE 17: note = Lysine is chemically modified through conjugation of the epsilon-amino group of the Lysine side chain with (2-[2-(2-Amino-ethoxy)-ethoxy]-acetyl)
For B8, the figures for the cAMP Rel EC50, nM (1% HSA) in assay [1], in assay [2] and in assay [3] were 22.3 nM, 511 nM and 170 nM, respectively.

B9: Example 1030 (peptide)
chain: YXQGTFTSDXSQXLDKKAQXAFIEYLIAGGPSSGAPPPSGSEE
modifications: synthetic construct; SITE 2: note = 2-Aminoisobutyric Acid; SITE 10: note = 3-(4-Pyridyl)-L-alanine; SITE 13: note = alpha-methyl-leucine; SITE 17: note = Lysine is chemically modified through conjugation of the epsilon-amino group of the Lysine side chain with (Glu)-(gamma-Glu)-CO-(CH2)16-CO2H; SIT
Take B9: the Relative cAMP EC50 came out at 0.122 nM in assay [1], 9.42 nM in assay [2] and 1.72 nM in assay [3]. Also, the cAMP Rel EC50, nM (1% HSA) in assay [1] is 21 nM; in assay [2], 1830 nM; in assay [3] it was 385 nM.

B10: Example 1031 (peptide)
chain: YXQGTFTSDXSQXLDXKAQXAFIEYLIAGGPSSGAPPPSGSEE
modifications: non-natural residues; C18 diacid-(γ-Glu)2 acyl on Lys; C-terminal amide; synthetic construct; SITE 2: note = 2-Aminoisobutyric Acid; SITE 10: note = 3-(4-Pyridyl)-L-alanine; SITE 13: note = alpha-methyl-leucine; SITE 16: note = L-ornithine; SITE 17: note = Lysine is chemically modified through conjugation of the epsilon-amino group of the Lysine side chain with (gamma-Gl)
With B10, the cAMP Rel EC50, nM (1% HSA) in assay [1] came to 17.3 nM; in assay [2] it was 1200 nM; in assay [3], 152 nM.

B11: Example 1028 (peptide)
chain: YXQGTFTSDXSQXLDXKAQXAFIEXLIEGGPSSGEPPPSGSEE
modifications: non-natural residues; lysine acylated with C18 diacid; C-terminal amide; synthetic construct; SITE 2: note = 2-Aminoisobutyric Acid; SITE 10: note = 3-(4-Pyridyl)-L-alanine; SITE 13: note = alpha-methyl-leucine; SITE 16: note = L-ornithine; SITE 17: note = Lysine is chemically modified through conjugation of the epsilon-amino group of the Lysine side chain with (gamma-Gl)
For the molecule B11, the figures for the Relative cAMP EC50 in assay [1], in assay [2] and in assay [3] were 0.189 nM, 5.77 nM and 1.34 nM, respectively. The values for the cAMP Rel EC50, nM (1% HSA) in assay [1], in assay [2] and in assay [3] were 157 nM, 3910 nM and 986 nM, respectively.

B12: Example 1035 (peptide)
chain: YXQGTFTSDXSQXLDXKAQXAFIEYLIAGGPSSGAPPPSGSEE
modifications: non-natural residues; acylated Lys; C-terminal amide; synthetic construct; SITE 2: note = 2-Aminoisobutyric Acid; SITE 10: note = 3-(4-Pyridyl)-L-alanine; SITE 13: note = alpha-methyl-leucine; SITE 16: note = L-ornithine; SITE 17: note = Lysine is chemically modified through conjugation of the epsilon-amino group of the Lysine side chain with (gamma-Gl)
For B12, the cAMP Rel EC50, nM (1% HSA) in assay [1] is 16 nM; in assay [2], 1380 nM; in assay [3], 167 nM.

B13: Example 1010 (peptide)
chain: YXQGTFTSDXSXXLDKKAQXAFIEYLIAGGPSSGAPPPSESE
modifications: not fully specified; synthetic construct; SITE 2: note = 2-Aminoisobutyric Acid; SITE 10: note = 3-(4-Pyridyl)-L-alanine; SITE 12: note = L-ornithine; SITE 13: note = alpha-methyl-leucine; SITE 17: note = Lysine is chemically modified through conjugation of the epsilon-amino group of the Lysine side chain with (gamma-Gl)
With B13, the Relative cAMP EC50 came out at 0.159 nM in assay [1], 4.5 nM in assay [2] and 2.89 nM in assay [3]. Further, the cAMP Rel EC50, nM (1% HSA) came to 15.1 nM in assay [1], 214 nM in assay [2] and 218 nM in assay [3].
